Data taken from article PMC2880568 (PLoS Pathogens, 2010).

Experiments:
Settings in all cases: both partners purified
[1] = target: T1, EloBC (elongin B - elongin C heterodimer) (UniProt Q15370 1-118; Q15369 16-111); assay: ITC
T1 construct: also called EloB-EloC heterodimer; full length EloBC

[2] = target: T1, EloBC (elongin B - elongin C …); assay: SEC
[3] = target: T1, EloBC (elongin B - elongin C …); assay: NMR titration

T1 sequence (Q15370 whole entry, chain 1 of 2): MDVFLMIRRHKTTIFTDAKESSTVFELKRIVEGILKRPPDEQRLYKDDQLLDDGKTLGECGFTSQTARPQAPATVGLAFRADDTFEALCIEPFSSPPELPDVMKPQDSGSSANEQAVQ
T1 sequence (Q15369 16-111, chain 2 of 2): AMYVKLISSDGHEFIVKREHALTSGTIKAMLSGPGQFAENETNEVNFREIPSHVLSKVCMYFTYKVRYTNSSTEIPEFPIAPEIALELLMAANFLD

Binder | Kd [1] [nM] | stoichiometry N [2] | KD fitted to the peak of EloB Asp-101 [3] [nM] | KD fitted to the peak of EloB Lys-104 [3] [nM] | KD fitted to the peak of EloB Met-103 [3] [nM] | KD fitted to the peak of EloB Val-102 [3] [nM]
wild type Vif SOCS-box protein (domain or fragment, source: E. coli BL21(DE3), purified (Ni-NTA, Superdex 75)) not shown | 1200 | 1 | 1710 | 3560 | 1730 | 430
HNKVGSLQYLALAALITPKKIKAAAPSVTKLTEDRWNK (domain or fragment, source: E. coli BL21(DE3), purified (Ni-NTA, Superdex 75)) [ΔPPL Vif SOCS-box protein] | 1250 |  |  |  |  | 
